The source of these data is patent US20120302492A1.

The test has as its target GPIIb/IIIa protein (UniProt P08514). As to the kind of experiment: equal mix of wt and RGD1 phage bound to GPIIb/IIIa-coated plate, eluted, phagemid DNA analysis.

B1: phage wtCD59 (CD59-gIII fusion protein displayed on phage) (protein, human, UniProt P13987 26-102, looked up, not shown: small tags and cut ends; large carriers)
chain: LQCYNCPNPTADCKTAVNCSSDFDACLITKAGLQVYNKCWKFEHCNFNDVTTRLRENELTYYCCKKDLCNFNEQLEN
Consider B1, for which the clones recovered among 12 picked after binding of an equal phage mix is 1 clones of 12.
